Earlier results, collected in publication PMC5840170.
Where two headings read alike, the source gives them in different places.

Legend:
VPS4 MIT (Homo sapiens) [1] = molecular target: VPS4 MIT (Homo sapiens) (UniProt Q9UN37)
VPS4 (Homo sapiens) = VPS4 (Homo sapiens) (UniProt Q9UN37)
VPS4 MIT (Homo sapiens) [2] = molecular target: VPS4 MIT (Homo sapiens) (UniProt Q9UN37); remark: listed apart in the source
[3] = molecular target: EAP20 (Vps25) winged helix (wH) (Homo sapiens) (UniProt Q9BRG1)
EAP20 (Homo sapiens) = EAP20 (Homo sapiens) (UniProt Q9BRG1)
Sequence of EAP20 (Homo sapiens) (Q9BRG1 whole entry): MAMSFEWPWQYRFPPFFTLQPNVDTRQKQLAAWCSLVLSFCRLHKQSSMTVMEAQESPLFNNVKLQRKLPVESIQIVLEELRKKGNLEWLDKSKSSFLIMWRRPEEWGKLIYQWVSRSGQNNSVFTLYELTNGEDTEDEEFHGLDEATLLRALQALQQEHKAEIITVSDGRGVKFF

VPS4 MIT (Homo sapiens) [4] = molecular target: VPS4 MIT (Homo sapiens) (UniProt Q9UN37); remark: listed apart in the source
[5] = molecular target: CdvB wH domain (Sulfolobus acidocaldarius) (UniProt Q4J924)
Sequence of CdvB wH domain (Sulfolobus acidocaldarius) (Q4J924 213-261): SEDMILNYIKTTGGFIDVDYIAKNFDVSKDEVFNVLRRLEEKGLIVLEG

[6] = molecular target: CdvB wH domain (Sulfolobus acidocaldarius) (UniProt Q4J924); remark: listed apart in the source
[7] = molecular target: CdvC MIT domain (Sulfolobus acidocaldarius) (UniProt F2Z6D2)
Sequence of CdvC MIT domain (Sulfolobus acidocaldarius) (F2Z6D2 8-76): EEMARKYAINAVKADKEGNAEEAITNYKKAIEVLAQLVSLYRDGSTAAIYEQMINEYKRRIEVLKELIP

[8] = molecular target: CdvC MIT (Sulfolobus acidocaldarius) (UniProt F2Z6D2)
Sequence of CdvC MIT (Sulfolobus acidocaldarius) (F2Z6D2 8-76): as above

[9] = molecular target: CdvC MIT domain (Sulfolobus acidocaldarius) (UniProt F2Z6D2); remark: listed apart in the source
[10] = molecular target: CdvC MIT (Sulfolobus acidocaldarius) (UniProt F2Z6D2); remark: listed apart in the source
[11] = molecular target: CdvC MIT domain (Sulfolobus acidocaldarius) (UniProt F2Z6D2); remark: listed apart in the source
[12] = molecular target: Vps4 (Saccharomyces cerevisiae) (UniProt P52917)
Sequence of Vps4 (Saccharomyces cerevisiae) (P52917 whole entry): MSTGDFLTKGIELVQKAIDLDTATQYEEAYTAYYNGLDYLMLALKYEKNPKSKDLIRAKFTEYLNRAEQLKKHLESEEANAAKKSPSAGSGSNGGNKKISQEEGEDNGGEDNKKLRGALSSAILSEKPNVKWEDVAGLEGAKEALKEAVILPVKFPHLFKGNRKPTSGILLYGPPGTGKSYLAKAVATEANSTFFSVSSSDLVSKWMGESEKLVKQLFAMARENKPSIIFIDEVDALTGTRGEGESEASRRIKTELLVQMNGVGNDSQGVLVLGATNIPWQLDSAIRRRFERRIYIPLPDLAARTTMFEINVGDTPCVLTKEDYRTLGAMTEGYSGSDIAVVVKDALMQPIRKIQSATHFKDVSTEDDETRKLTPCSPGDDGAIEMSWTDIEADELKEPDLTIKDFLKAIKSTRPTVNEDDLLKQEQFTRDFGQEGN

[13] = molecular target: Vps4 MIT (Saccharomyces cerevisiae) (UniProt P52917)
Sequence of Vps4 MIT (Saccharomyces cerevisiae) (P52917 1-83): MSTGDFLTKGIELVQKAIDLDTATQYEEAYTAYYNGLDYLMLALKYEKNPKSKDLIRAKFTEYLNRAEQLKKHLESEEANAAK

[14] = molecular target: ESCRT-III subunit (Vps2) α5 helix (Saccharomyces cerevisiae) (UniProt P36108)
Sequence of ESCRT-III subunit (Vps2) α5 helix (Saccharomyces cerevisiae) (P36108 165-184): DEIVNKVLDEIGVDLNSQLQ

Sequence of VPS4 MIT (Homo sapiens) (Q9UN37 1-83): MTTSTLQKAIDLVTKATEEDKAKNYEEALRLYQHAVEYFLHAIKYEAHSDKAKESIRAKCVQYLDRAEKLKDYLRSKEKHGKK
Sequence of CHMP6 (Vps20) (Q96FZ7 2-201): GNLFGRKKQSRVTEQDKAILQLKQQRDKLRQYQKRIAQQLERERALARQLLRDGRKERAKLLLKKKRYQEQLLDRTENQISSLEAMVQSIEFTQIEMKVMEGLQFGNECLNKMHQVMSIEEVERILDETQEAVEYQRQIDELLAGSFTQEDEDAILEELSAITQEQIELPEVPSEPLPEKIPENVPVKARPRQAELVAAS
Sequence of CHMP6 (Q96FZ7 2-201): as above
Sequence of Vps2 (P36108 whole entry): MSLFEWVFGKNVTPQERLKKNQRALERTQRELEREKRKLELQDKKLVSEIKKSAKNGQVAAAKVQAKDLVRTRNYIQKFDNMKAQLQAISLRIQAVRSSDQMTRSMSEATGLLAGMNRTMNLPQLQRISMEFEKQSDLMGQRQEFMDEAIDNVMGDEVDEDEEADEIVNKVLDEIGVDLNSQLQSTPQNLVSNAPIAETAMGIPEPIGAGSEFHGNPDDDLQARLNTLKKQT
Sequence of VPS4 (Homo sapiens) (Q9UN37 whole entry): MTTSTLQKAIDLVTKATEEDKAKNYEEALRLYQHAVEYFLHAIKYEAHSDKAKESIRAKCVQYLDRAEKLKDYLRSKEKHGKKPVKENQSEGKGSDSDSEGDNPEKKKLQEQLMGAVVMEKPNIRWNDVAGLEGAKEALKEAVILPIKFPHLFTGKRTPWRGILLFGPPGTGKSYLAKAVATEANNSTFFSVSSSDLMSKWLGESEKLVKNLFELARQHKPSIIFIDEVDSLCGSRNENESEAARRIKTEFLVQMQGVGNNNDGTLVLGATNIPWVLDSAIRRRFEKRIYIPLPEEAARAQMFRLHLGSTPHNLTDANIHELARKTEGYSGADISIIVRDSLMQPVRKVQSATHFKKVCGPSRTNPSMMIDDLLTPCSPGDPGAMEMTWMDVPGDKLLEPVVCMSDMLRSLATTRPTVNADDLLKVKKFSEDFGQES
Sequence of CdvB1 C-terminus (Q4JBG6 195-214): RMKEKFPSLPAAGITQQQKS
Sequence of Vps4 central pore loops (P52917 whole entry, looked up): as the sequence (P52917 whole entry) above
Sequence of CdvA E3B (Q4J923 216-238): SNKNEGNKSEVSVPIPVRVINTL
Sequence of CdvB 177-261 (Q4J924 177-261): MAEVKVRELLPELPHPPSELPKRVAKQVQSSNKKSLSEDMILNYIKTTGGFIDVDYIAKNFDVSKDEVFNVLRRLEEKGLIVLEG
Sequence of EAP20 (Vps25) winged helix (wH) (Homo sapiens) (Q9BRG1 102-176): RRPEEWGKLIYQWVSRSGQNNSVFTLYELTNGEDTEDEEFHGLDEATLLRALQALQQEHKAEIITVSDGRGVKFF
Sequence of CdvA E3B peptide (Q4J923 214-238): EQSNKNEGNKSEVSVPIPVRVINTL
Sequence of Vps2 MIM1 (P36108 211-232): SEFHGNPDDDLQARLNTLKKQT
Sequence of CHMP4 (Q9H444 2-224): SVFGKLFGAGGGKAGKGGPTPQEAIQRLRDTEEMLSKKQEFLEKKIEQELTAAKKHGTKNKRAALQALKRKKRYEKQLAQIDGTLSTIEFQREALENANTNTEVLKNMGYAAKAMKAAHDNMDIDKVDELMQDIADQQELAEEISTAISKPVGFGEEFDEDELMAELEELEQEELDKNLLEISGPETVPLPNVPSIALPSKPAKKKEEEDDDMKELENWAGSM
Sequence of CdvB2 C-terminus (Q4J8Y4 200-219): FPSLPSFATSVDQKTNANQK

For CHMP1A MIM1 (from UniProt Q9HD42), which Kd (VPS4 MIT (Homo sapiens) [1]) is on record?
The Kd was 4.5 µM.

And the Kd (VPS4 (Homo sapiens))?
Its Kd is 4.5 µM.

Which Kd (VPS4 MIT (Homo sapiens) [2]) does the source give for CHMP4 (from UniProt Q9H444) here?
The Kd was over 100 µM.

Which Kd [3] does the source give for CHMP6 (Vps20) (from UniProt Q96FZ7) here?
The Kd was 7 µM.

Which Kd (EAP20 (Homo sapiens)) does the source give for CHMP6 (from UniProt Q96FZ7) here?
Its Kd is 7 µM.

Which Kd (VPS4 MIT (Homo sapiens) [4]) does the source give for CHMP6 MIM2 (from UniProt Q96FZ7) here?
Its Kd is 30 µM.

With CdvA E3B (from UniProt Q4J923) as the substance, how does the Kd [5] read?
Its Kd is 6 µM.

With CdvA E3B peptide (from UniProt Q4J923) as the substance, how does the Kd [6] read?
Its Kd is 6 µM.

For CdvB1 C-terminus (from UniProt Q4JBG6), which Kd [7] is on record?
Its Kd is over 100 µM.

With “CdvB1 C-terminus peptide (from UniProt Q4JBG6)” as the substance, how does the Kd [8] read?
Its Kd is over 100 µM.

With CdvB2 C-terminus (from UniProt Q4J8Y4) as the substance, how does the Kd [9] read?
Its Kd is over 100 µM.

Which Kd [10] does the source give for “CdvB2 C-terminus peptide (from UniProt Q4J8Y4)” here?
The Kd was over 100 µM.

Which Kd [11] does the source give for CdvB 177-261 (from UniProt Q4J924) here?
Its Kd is 30 µM.

With Vps2 (from UniProt P36108) as the substance, how does the Kd [12] read?
The Kd was 30 µM.

With Vps2 MIM1 (from UniProt P36108) as the substance, how does the Kd [13] read?
The Kd was 30 µM.

Which Kd [14] does the source give for “Vps4 central pore loops (from UniProt P52917)” here?
Its Kd is 2000 nM.
